# Experimental data as given in US9433687B2, “Anti-Notch3 antibodies and antibody-drug conjugates” (Pfizer Inc., priority 2012, dated 2016).
# B1: hu28 VH1.0/VL1.0: humanized r28 variant VH1.0/VL1.0, anti-Notch3 antibody (VH SEQ ID NO: 13, VL SEQ ID NO: 25) (antibody, V domains shown)
# VH: EVQLVESGGGLVQPGGSLRLSCAASGFTFRDYGMTWVRQAPGKGLEWVAYISSGSNYIYYAEAVKGRFTISRDNAKNSLYLQMNSLRAEDTAVYYCARRGPFVLDAWGQGTLVTVSS
# VL: DIQMTQSPSSLSASVGDRVTITCKASQSINRYLHWYQQKPGKAPKLLIYNANGLQTGVPSRFSGSGSGTDFTLTISSLQPEDFATYYCLQHNTWPDTFGGGTKVEIK
# B2: ch75: rat-human chimeric anti-Notch3 antibody 75, rat variable regions fused with human IgG1 and human kappa (antibody, V domains shown)
# VH: QVKLLQSGAALVKPGASVKMSCKASGYAFTDYWVTWVKQSHGKSLEWIGEISPNSGGTNFNEKFKGKATLTVDKSTSTAYMELSRLTSEDSAIYYCTRGEIRYNWFAYWGQGTLVTVSS
# VL: NIVMTQSPKSMSISVGDRVTMNCKASQNVGNNIAWYQQKPGQSPKLLIYYASNRYTGVPDRFTGGGYGTDFTLTINSMQAEDAAFYYCQRLYNSPFTFGSGTKLEIK
# Key:
# HCC2429 (lung cancer) = experiment: In vitro cytotoxicity (MTS), HCC2429; type: cell-based, human; settings: HCC2429; data not shown
# Summary of the method: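 Cells with endogenous Notch3 cultured four days with increasing concentrations of anti-Notch3 ADCs (chimeric or humanized antibodies with various linker-payloads, including cysteine-mutant conjugates); non-targeted ADCs served as specificity controls. Viability by MTS; IC50 from logistic non-linear regression, expressed as ng Ab/mL, with DAR given.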
# [1] = test system: Notch3 signaling in human Notch3 reporter cells co-cultured with DLL4-HEK293 cells; experiment: Notch3 reporter gene co-culture assay; type: cell-based; settings: average of two or three independent experiments; read-out: IC50 (nM) inhibition of Notch3-dependent signaling
# Method: The ability of anti-Notch3 chimeric antibodies, ch28-hulgG1 and ch75-hulgG1, and humanized antibodies, hu28 and hu75, to inhibit Notch3 signaling were tested in a Notch3-dependent reporter gene co-culture assay. Anti-Notch3 antibodies were pre-incubated with Notch3 reporter cells and then co-cultured with DLL4-HEK293 cells to activate Notch3 signaling or with parental HEK293 cells as a control.
# To generate the Notch3 reporter cell line, a series of three sequential, stable transfections were performed in the U-2 OS human osteosarcoma cell line (ATCC, Manassas, Va.). […]
# To generate the ligand-expressing cells, HEK293 cells (ATCC) were transfected with a vector for expression of human DLL4. […] Following transfection, HEK293 cells were selected in 0.5 mg/ml G418, and clonal lines were isolated, expanded and analyzed for DLL4 expression. […]
# The luminescent readings from Firefly-luciferase were divided by the internal control Renilla-luciferase reading to normalize the signals (termed hereinafter “F/R ratio”). […]
# Human Notch3 reporter cells were trypinized and harvested from culture plate in assay medium which consisted 50% complete McCoy's 5A media (McCoy's 5A with 10% FBS and penicillin, streptomycin, Invitrogen) and 50% of complete MEM media (MEM with 10% FBS and penicillin, streptomycin, Invitrogen) and counted. […]
molecule,measurement,setting,value
B1,effect of unconjugated antibody on viability,HCC2429 (lung cancer),did not affect the viability
B2,IC50,[1],2.1 nM
